Laboratory results taken from US20190135888A1 (Harvard, published 2019).
Blank lines part the entries; values can stand above or below the binder they belong to.

B1: GCGR extracellular domain (GCGR-ecd) (receptor, UniProt P47871 26-136, looked up)
chain: AQVMDFLFEKWKLYGDQCHHNLSLLPPPTELVCNRTFDKYSCWPDTPANTTANISCPWYLPWHHKVQHRFVFKRCGPDGQWVRGPRGQPWRDASQCQMDGEEIEVQKEVAK
notes: extracellular domain; also called glucagon receptor extracellular domain; not shown: Hexahistidine and WELQ protease site added during cloning; MST was run with tag and with
B4: human aP2 (fatty acid-binding protein, adipocyte, FABP4/aP2, Homo sapiens) (other)
chain: CDAFVGTWKLVSSENFDDYMKEVGVGFATRKVAGMAKPNMIISVNGDVITIKSESTFKNTEISFILGQEFDEVTADDRKVKSTITLDGGVLVHVQKWDGKSTTIKRKREDDKLVVECVMKGVTSTRVYERA
notes: Biotinylated with Sulfo-NHS-LC-Biotin for the Octet cross-reactivity assay; also called haP2; hFABP4

Key:
[1] = molecular target: glucagon/aP2 complex (glucagon plus aP2, Example 1) (Mus musculus (Mouse), UniProt P04117 1-132, limits assumed); test: BLI (BLItz): GCGR-ecd on biotin-glucagon immobilized on streptavidin sensors, in the presence of aP2
[2] = molecular target: B1; test: binding curve, Response (ΔFnorm [‰]) against Ligand Concentration [nM]; the table under the plot has no unit, nM is that of the axis; paragraph 390 names an Octet system; which partner is titrated is not given
[3] = molecular target: B1; test: binding curve, Response (ΔFnorm [‰]) against Ligand Concentration [nM]; table under the plot
[4] = molecular target: B4; test: Biacore T200, anti-aP2 IgG captured on anti-mouse IgG Fc, aP2 titrated over it; steady-state fit for CA33
[5] = molecular target: T1, hFABP5/hMal1 (recombinant human FABP5, Sino Biological Inc.) (human, UniProt Q01469 1-135, limits assumed); test: Octet RED384, biotinylated human FABP on streptavidin biosensors, antibody at 800 nM
T1 construct: Biotinylated with Sulfo-NHS-LC-Biotin and loaded on streptavidin biosensors; also called FABP5/Mal1; Mal1/FABP5
Experimental: The recombinant human proteins aP2 (generated at UCB in E. coli (see method below)), hFABP3 (Sino Biological Inc.) and hFABP5/hMall (Sino Biological Inc.) were biotinylated in a 5-fold molar excess of EZ-Link® Sulfo-NHS-LC-Biotin (Thermo Fisher Scientific) and purified from unbound biotin using a Zeba desalting column (Thermo Fisher Scientific). All binding studies were performed at 25° C. using a ForteBio Octet RED384 system (Pall ForteBio Corp.). […] Biosensors were then transferred back to PBS-T for 5 min. to measure dissociation. Non-specific binding of antibodies was monitored using unloaded biosensor tips.

glucagon [6] = molecular target: T2, glucagon; test: binding curve, Response (ΔFnorm [‰]) against Ligand Concentration [nM]; table under the plot
T2 construct: This id is also used for the endogenous glucagon of mouse serum; also called biotin-glucagon; biotinylated glucagon

glucagon [7] = molecular target: T2, glucagon; test: binding curve, Response (ΔFnorm [‰]) against Ligand Concentration [nM]; the table under the plot has no unit, nM is that of the axis; paragraph 390 names an Octet system; which partner is titrated is not given

T2 sequence (peptide, as listed by the source): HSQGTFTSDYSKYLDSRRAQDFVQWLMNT
T1 sequence (Q01469 whole entry): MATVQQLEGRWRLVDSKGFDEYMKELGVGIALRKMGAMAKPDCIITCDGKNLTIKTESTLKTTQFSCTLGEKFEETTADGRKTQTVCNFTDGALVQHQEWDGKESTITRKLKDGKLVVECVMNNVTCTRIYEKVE

Binder: B1
Kd [1]: 54.1 nM

EC50 [2]: 327 nM
logEC50 [3]: 2.51
B2: aP2 (recombinant aP2 of Example 1) (other)
chain: MCDAFVGTWKLVSSENFDDYMKEVGVGFATRKVAGMAKPNMIISVNGDLVTIRSESTFKNTEISFKLGVEFDEITADDRKVKSIITLDGGALVQVQKWDGKSTTIKRKRDGDKLVVECVMKGVTSTRVYERA
notes: Used unlabelled, and amine-biotinylated in the scintillation proximity assay; also called FABP4

Kd [4]: 2830 nM
binding result [5]: no binding (tested: 800 nM)
B3: CA33 (Rabbit Ab 909) (antibody, V domains shown)
VH: QSVEESGGRLVTPGTPLTLTCTVSGFSLSTYYMSWVRQAPGKGLEWIGIIYPSGSTYCASWAKGRFTISKASTTVDLKITSPTTEDTATYFCARPDNDGTSGYLSGFGLWGQGTLVTVSS
VL: DVVMTQTPASVSEPVGGTVTIKCQASEDISRYLVWYQQKPGQPPKRLIYKASTLASGVPSRFKGSGSGTDFTLTISDLECDDAATYYCQCTYGTYAGSFFYSFGGGTEVVVE
notes: Rabbit variable regions; also called Rabbit Antibody 909; antibody 909

Binder: B4
logEC50 (glucagon [6]): 1.31
EC50 (glucagon [7]): 20.3 nM
